Data: patent US20060034848A1 (published 2006)

Target: T1, LC-myc with the second NPxY motif mutated to APxA (UniProt Q07954 3944-4544, limits assumed)
T1 construct: domain: light chain (LC); The substitutions have no printed residue numbers; also called 2nd NPxY mutant; not shown: C-terminal myc tag
T1 sequence (looked up): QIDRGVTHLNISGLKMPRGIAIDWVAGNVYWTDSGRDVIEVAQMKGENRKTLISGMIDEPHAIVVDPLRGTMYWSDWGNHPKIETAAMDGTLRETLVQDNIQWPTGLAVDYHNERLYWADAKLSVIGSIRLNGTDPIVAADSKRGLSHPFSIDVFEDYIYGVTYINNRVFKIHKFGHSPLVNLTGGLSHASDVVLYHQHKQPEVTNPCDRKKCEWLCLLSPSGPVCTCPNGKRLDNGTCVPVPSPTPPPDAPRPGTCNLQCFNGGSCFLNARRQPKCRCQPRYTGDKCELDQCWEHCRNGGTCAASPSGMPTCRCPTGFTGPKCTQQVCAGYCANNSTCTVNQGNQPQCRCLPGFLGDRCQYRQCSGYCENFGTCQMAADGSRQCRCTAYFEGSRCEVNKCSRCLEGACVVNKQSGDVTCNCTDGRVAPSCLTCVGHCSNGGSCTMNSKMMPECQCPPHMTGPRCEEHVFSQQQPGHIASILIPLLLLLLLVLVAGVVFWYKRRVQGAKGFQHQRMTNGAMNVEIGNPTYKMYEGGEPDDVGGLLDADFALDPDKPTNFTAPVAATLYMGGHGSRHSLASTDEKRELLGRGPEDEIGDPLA
Test: FLIM/FRET in cells

- binding result: binds
B1: BACE (wild type; tag of the construct not stated at that place) (enzyme, human, UniProt P56817 46-501, looked up)
chain: ETDEEPEEPGRRGSFVEMVDNLRGKSGQGYYVEMTVGSPPQTLNILVDTGSSNFAVGAAPHPFLHRYYQRQLSSTYRDLRKGVYVPYTQGKWEGELGTDLVSIPHGPNVTVRANIAAITESDKFFINGSNWEGILGLAYAEIARPDDSLEPFFDSLVKQTHVPNLFSLQLCGAGFPLNQSEVLASVGGSMIIGGIDHSLYTGSLWYTPIRREWYYEVIIVRVEINGQDLKMDCKEYNYDKSIVDSGTTNLRLPKKVFEAAVKSIKAASSTEKFPDGFWLGEQLVCWQAGTTPWNIFPVISLYLMGEVTNQSFRITILPQQYLRPVEDVATSQDDCYKFAISQSSTGTVMGAVIMEGFYVVFDRARKRIGFAVSACHVHDEFRTAAVEGPFVTLDMEDCGYNIPQTDESTLMTIAYVMAAICALFMLPLCLMVCQWRCLRCLRQQHDDFADDISLLK
notes: whole, on cells; Used for the sentences that say only BACE or WT-BACE (NPxY mutant FLIM, Fe65 and mDab1 FRET, shedding, CTF and luciferase assays); also called WT-BACE
